Assay [1] has as its target T1, Dpy-30 (Homo sapiens, UniProt Q9C005). The experiment in a line: Ni-NTA pulldown of GST-tagged RSP3 peptides with His-tagged human Dpy-30 protein. Particulars: full-length human His-Dpy-30 co-expressed with GST-RSP3 peptide. Set-up: made in house; host or cells: E. coli BL21(DE3), co-expressed with the GST-RSP3 peptides. It is filed as binding. The source says:
(§1) Based on the phenotypes of RSP3 transgenic strains (FIG. 4), an in vitro approach was taken to test that RSP3269-316 contains a Dpy-30 domain binding site. RIIa-binding AHs are 14-18-a.a. long. Some of AHs are clearly comprised of ΦΦXX repeats in which the first two residues are hydrophobic residues (Φ) positioned to interact with complementary residues at the binding grooves of the RIIa domain (Burns-Hamuro et al., 2003; Kinderman et al., 2006; Sarma et al., 2010), whereas for the other RIIa-binding AHs the repeats are not as evident (Gold et al., 2006; Gaillard et al., 2001). Typical ΦΦXX repeats were noted within the Dpy-30 binding fragment in BIG1 at the trans-Golgi network but were not tested yet (Xia et al., 2010). For RSP3269-316, typical and degenerate ΦΦXX repeats are present throughout this region, thus the precise Dpy-30 binding site was determined objectively by Ni-NTA pulldown. As a control, the His-tagged RIIa domain from RSP7 was co-expressed with the GST-tagged RSP396-180 that harbors AHR at a.a.#161-178 (Gaillard et al., 2001; FIG. 3) and both polypeptides were co-purified by Ni-NTA (FIG. 7A). Various Dpy-30 domain containing RSP2 and RSP23 polypeptides were tested but were not compatible for this assay due to poor expression or precipitation propensity. Therefore we used the His-tagged human Dpy-30 protein for Ni-NTA pulldown instead. As expected, both GST-RSP3245-316 and GST-RSP3269-316 were co-purified with His-Dpy-30 by Ni-NTA (FIGS. 7B and 7C). In contrast, the GST control was not co-purified (FIG. 7D).
(§2) The experiments were further conducted on smaller segments within a.a.#269-316. GST-RSP3280-316 and GST-RSP3280-308, but not GST-RSP3280-306, were also pulled down by His-Dpy-30 (FIG. 7E, left panel). […] To ensure that the co-purification occurs through the Dpy-30 domain rather than its flanking sequence, the same experiment was conducted with the Dpy-30 domain only (Dpy-3045-99, Wang et al., 2009). The results from the experiments using Dpy-30 domain alone or full-length Dpy-30 protein were similar (FIG. 7E, right panel). Based on the similar dimensions of the RIIa and Dpy-30 domains (FIG. 1), we tested if the Dpy-30 binding peptide is centered on the 18-a.a. helix at the a.a.#291-308 by mutating V300 in the middle of the region into P, a strategy used to study AHR (Gaillard et al., 2001; Carr et al., 1992). […] RSP3291-308.
For Ni-NTA (Qiagen) affinity co-purification, GST-tagged RSP3 constructs and His-tagged HDpy-30 constructs were co-transformed into BL21(DE3) cells. The recombinant proteins were induced using 1 mM IPTG overnight at 16° C. Following induction, the cell pellet from a 5-ml culture was resuspended in 750 μl lysis buffer and sonicated using Branson digital Sonifier (Emerson Industrial Automation). The sonicated mixtures were centrifuged at 4° C., 12,000 rpm for 25 min. The supernatant was incubated with 100 μl Ni-NTA for 1 hour at room temperature. The matrix was subsequently washed thrice and elution was carried out as instructed by the manufacturer.

In assay [2] the target is T2, Dpy-30 domain only (Dpy-3045-99) (Homo sapiens, UniProt Q9C005).
T2 construct: made in house; host or cells: E. coli BL21(DE3), co-expressed with the GST-RSP3 peptides
T2 sequence (Q9C005 45-99): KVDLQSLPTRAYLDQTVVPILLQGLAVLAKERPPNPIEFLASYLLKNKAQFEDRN
Put plainly: Ni-NTA pulldown of GST-tagged RSP3 peptides with the Dpy-30 domain only. It is filed as binding. The protocol:
as §2
For Ni-NTA (Qiagen) affinity co-purification, GST-tagged RSP3 constructs and His-tagged HDpy-30 constructs were co-transformed into BL21(DE3) cells. The recombinant proteins were induced using 1 mM IPTG overnight at 16° C. Following induction, the cell pellet from a 5-ml culture was resuspended in 750 μl lysis buffer and sonicated using Branson digital Sonifier (Emerson Industrial Automation). The sonicated mixtures were centrifuged at 4° C., 12,000 rpm for 25 min. The supernatant was incubated with 100 μl Ni-NTA for 1 hour at room temperature. […]

In assay [3] the target is T3, RIIα D/D (a.a.#1-64) (Mus musculus, UniProt P12367, S2G).
T3 construct: made in house; host or cells: E. coli BL21(DE3); template pRSETB-RIIα from Dr. Susan Taylor
T3 sequence (P12367 1-64 S2G limits assumed): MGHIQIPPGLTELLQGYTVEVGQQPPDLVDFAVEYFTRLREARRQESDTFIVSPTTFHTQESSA
Put plainly: Ni-NTA pulldown with His-RIIα D/D. The assay is classed as binding. Conditions: 300 mM NaCl buffers. The source says:
(§3) Most AHs are mono-specific to RIIα D/D except a few that are either RIα D/D-specific (Angelo and Rubin, 1998; Means et al., 2011; Welch et al., 2010) or dual specific, binding to both (Huang et al., 1997; Jarnaess et al., 2008). To test if hAsh2 AH can cross-react with PKA's D/D, we created constructs expressing the D/D domain and the flanking sequences from bovine RIα (a.a.#1-81) and mouse RIIα (a.a.#1-64). His-RIα D/D or His-RIIα D/D was co-expressed with GST-RSP396-180, which contains the AH (RSP3160-178) that bind RII in the overlay assay (Gaillard et al., 2001). […] In the eluate, the ratio of RSP396-180-RIα D/D was the lowest, followed by RSP396-180-RIIα D/D and then RSP396-180-RIIα D/D from RSP7, the de facto partner of RSP3. Although RSP396-180 in the extract was also the most concentrated when co-expressed with RSP7's RIIα, this likely is due to effective binding of RSP7's D/D, protecting GST-RSP396-180 from proteolysis, which occurred when GST-RSP396-180 was expressed by itself (not shown). Similarly, when co-expressed with GST-hAsh2593-623, RIα D/D and RIIα D/D were depleted in the flow through but few polypeptides, especially RIIα D/D, were present in the eluate (FIG. 12A, right panel, compare Extract, Post and Elute). […]

For assay [4], the target named is T1, Dpy-30. The experiment in a line: Ni-NTA pulldown of GST-hAsh2 peptides with His-Dpy-30. It is filed as binding. Set-up: Dpy-30 fragments, full length or a.a.#49-99, were amplified using purchased IMAGE cDNA clone #4081996 as a template; made in house; host or cells: E. coli BL21(DE3); key to co-purified with Dpy-30: “+” or “−” indicates if the peptides were or were not evidently co-purified with Dpy-30; “+” or “−” indicates if the peptides were or were not evidently co-purified with Dpy-30. An excerpt:
To test this, we performed pull down assays for His-Dpy-30 and GST-hAsh2593-623. The human Ash2 fragment contains a helix with two typical and three atypical ΦΦXX motifs. The hAsh2 DNA was fused downstream to GST DNA by PCR and the product was cloned into an expression vector. Three clones—#9 and #14 with the expected in-frame fusion and #6 with an out-of-frame fusion—were expressed in bacteria. Their extract was mixed with equal volume of bacterial extract with His-Dpy-30; and the mixture was subjected to Ni-NTA purification. […] Thus hAsh2593-623 interacts with Dpy-30 specifically.
Table 3 illustrates the protein sequences of hAsh2's C-terminal region (hAsh2593-623) and its variants, where “+” or “−” indicates if the peptides were or were not evidently co-purified with Dpy-30. The shorter fusion protein GST-hAsh2593-617 that terminated right after the last possible ΦΦXX-like motif, VETE (SEQ ID NO:35), in the helix was also co-purified with His-Dpy-30 (FIG. 11B, arrow and double arrowheads), no matter expressed separately or co-expressed. Both polypeptides were depleted in the flow through of Ni-NTA matrix (Post in FIG. 11B) and retained in the eluate.
All expression constructs were transformed or co-transformed into BL21(DE3) cells. The colonies were selected based on the antibiotic-resistant gene in each plasmid. The cultures were induced with 1 mM IPTG overnight at 18° C. The cell pellet from a 5-ml culture was resuspended in 750-μl lysis buffer supplemented with Complete Mini EDTA-free protease inhibitor cocktail tablets (Roche) and the suspension was sonicated on ice using Branson digital Sonifier until clarified (Emerson Industrial Automation). The sonicated mixtures were centrifuged at 4° C., 12,000 rpm for 25 min. The supernatant or combinations of supernatants as indicated were incubated with ˜100 μl Ni-NTA (Qiagen or Clontech) or Glutathione Sepharose 4B (Amersham Biosciences) for 1 hour at room temperature. The matrix was subsequently washed as instructed by manufacturers, unless indicated otherwise.
Bacterial extract, flow through and eluate in 1× Laemmli samples buffer were boiled for 5 min. In general, 10 μl samples were loaded in each lane in 4-20% precast acrylamide gels (Bio-Rad or DGEL Electrosystem, Canada) or 14% manually cast gels.

Assay [5] deals with T4, RIα D/D (a.a.#1-81) (Bos taurus, UniProt P00514).
T4 construct: made in house; host or cells: E. coli BL21(DE3); template pRSETB-RIα from Dr. Susan Taylor
T4 sequence (P00514 1-81): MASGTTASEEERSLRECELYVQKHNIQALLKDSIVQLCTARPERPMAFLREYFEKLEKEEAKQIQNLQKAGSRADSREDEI
Put plainly: Ni-NTA pulldown with His-RIα D/D. Particulars: 300 mM NaCl buffers. It is filed as binding, bovine.
Excerpt: as §3, with “shown).” for “shown). Similarly, when co-expressed with GST-hAsh2593-623, RIα D/D and RIIα D/D were depleted in the flow through but few polypeptides, especially RIIα D/D, were present in the eluate (FIG. 12A, right panel, compare Extract, Post and Elute).”
Although both RIα D/D and Dpy-30 D/D have a common α0 helix (Wang et al., 2009), GST-hAsh2593-623 cross reacted with RIα D/D poorly. […] To test this, the samples from repeated experiments were analyzed in the non-reducing SDS-PAGE. […]

The subject of assay [6] is RIIa domain from RSP7. The experiment in a line: Ni-NTA pulldown with His-tagged RIIa domain from RSP7. It is filed as binding, Chlamydomonas. Particulars: co-expressed in bacteria.
Excerpt: as §1
Based on the structural similarity, we tested for the cross-recognition of His-Dpy-30 and AHR (GST-RSP3g); and RSP7's RIIa and AHD (GST-RSP3280-308) by the described Ni-NTA pulldown assay. […] Thus Dpy-30 that has a deep pocket from an additional α-helix recognizes both AHR and AHD, whereas RSP7's RIIa, as PKA's RII, only binds RSP3's AHR(Gaillard et al., 2001). […]

No end group written: not given here.

T1 sequence (Q9C005 whole entry, the tested form may be a part): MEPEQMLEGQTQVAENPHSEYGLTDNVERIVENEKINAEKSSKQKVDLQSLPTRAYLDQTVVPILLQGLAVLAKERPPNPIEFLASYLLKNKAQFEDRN

As to “V300P: GST-tagged RSP3280-316 with V300 mutated into P (PWLKEQAIGYLARGVVARRVPDKLVEDAAAALAANRS; also: GST tag)”, in assay [1], the “co-purification / pulldown with His-Dpy-30” value is “abrogated the binding”. Also, the “binding to the Dpy-30 domain” value in assay [2] is “abrogated the binding”.

As for “PMSDMGWGAVVKHTLADVLYHVETEVDGRRS (also: GST fusion) [E604K, GST-hAsh2593-623 with E604 mutated to K]”, in assay [3], the “co-purification with His-RIIα D/D” value is “substantially enhanced the pulldown”. For the same molecule, the “co-purified with Dpy-30” value in assay [4] (GST-fused hAsh2 peptides, Ni-NTA pulldown, Coomassie-stained SDS-PAGE) is “+”. In addition, the “co-purification with His-Dpy-30” value in assay [4] (full-length His-Dpy-30, Ni-NTA, result in words) is “still pulled down substantially”. For the same molecule, the “co-purification with His-RIα D/D” value in assay [5] is “not”.

B1: RSP396-180: GST-tagged RSP3 fragment a.a. 96-180 that harbors the RIIa-binding AHR at a.a.#161-178 (protein)
chain: HIDIQTDVYLEELTDTVPEADTSTQTDAFLDRPPTPLFVPQKTGTDAITQIENGDLFDFDFEVEPILEVLVGKVLEQGLMEVLEE
modifications: left off: a dimerising Fc or GST
B1: the “co-purification / pulldown with His-Dpy-30” value in assay [1] was “pulled down”. In addition, in assay [5], the “co-purification with His-RIα D/D” value was “the lowest”. The figures for the “co-purification / pulldown with His-RIIa from RSP7” value in assay [6] and in assay [6] (listed as GST-RSP390-180) were “co-purified” and “most efficient”, respectively.

Source of the values: patent US9856300B2, “Dpy-30 binding peptides and methods of use” (Marquette University, priority 2011, dated 2018).
